Assay results published in paper PMC5716193.

Assays:
[1] = biological target: Opbp[1–174] fragment after deletion of TRX (Drosophila); assay: cross-linking
[2] = biological target: Thioredoxin-tagged Opbp[114–174] (Drosophila); assay: cross-linking

stoichiometry N [1]	stoichiometry N [2]	Substance
2		Opbp[1–174] fragment after deletion of TRX (domain or fragment)
	2	Thioredoxin-tagged Opbp[114–174] (domain or fragment)
